# Assay: yeast display, Sf9 membrane polyspecificity reagent, FACS + sequencing; frameworks hold sequencing errors
# Outline: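 Galactose-induced (36–48 hours) yeast carrying a synthetic nanobody display library were exposed to 10% biotinylated, detergent-solubilized Sf9 membrane reagent at 4 °C for 1 hour. FACS followed streptavidin microbead enrichment, using low and high (top ~1%) gates for expression (anti-HA) and reagent binding (streptavidin). Colony PCR, MiSeq 2 × 250 sequencing and CDR-length filtering followed. Labels for polyreactivity reflect the gate of origin.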
row,Sequence,polyreactivity (PSR sort gate)
1,QVQLVESGGGLVQAGGSLRLSCAASGLIFSSNAMGWYRQAPGKERELVAAISRRGGNTYYADSVKGRFTISRDNAKNTVYLQMNSLKPEDTAVYYCAARRYYVASIYRYDSWGQGTQVTVSS,high polyreactivity
2,QVQLVESGGGLVQAGGSLRLSCAASGLIFSSNAMGWYRQAPGKERELVATISWSGGSTYYADSVKGRFTISRDNAKNTVYLQMNSLKPEDTAVYYCAAVTHPAWAVEYDYWGQGTQVTVSS,high polyreactivity
3,QVQLVESGGGLVQAGGSLRLSCAASGLIFSVNAMGWYRQAPGKERELVAAITWSSGRTYYADSVKGRFTISRDNAKNSVYLQMISLKPEDTAVYYCAGVSYWYGLMYYWGQGTQVTVSS,high polyreactivity
4,QVQLVESGGGLVQAGGSLRLSCAASGLIFSYNAMGWYRQAPGTEMELVASITGGGSTYYADSVKGRFTISRDNAKNTVYFQIKSQKPEDTAVYYCAVVRLWYAQPAAGFRAGGGYWGQGTQVTLSS,low polyreactivity
5,QVQLVESGGGLVQAGGSLRLSCAASGLIFSYYAMGWYRQAPGKEMELVAAITSDDSTYYADSVKGRFTISRDNAKNTVYLQINSLKPEDTAVYYCAARYTMYDTGESSRTYTGFNYWGQGTQVTVSS,low polyreactivity
6,QVQLVESGGGLVQAGGSLRLSCAASGLIFSYYAMGWYRQAPGKERELVAAISWSGGSTYYADSVKGRFTISRDNAKNTVYLQMNSLKPEDTAVYYCAADRISADYDYWGQGTQVTVSS,low polyreactivity
7,QVQLVESGGGLVQAGGSLRLSCAASGLIFTTNAMGWYRQAPGKERELVAAISTSTGRTYYADSVKGRFTISRDNAKNTVYLQMNSLKPEDTAVYYCARGSRYVGTQRHYYKYDYWGQGTQVTVSS,high polyreactivity
8,QVQLVESGGGLVQAGGSLRLSCAASGLIFVANTMGWYRQATGKERELVAAITSDGGSTSYADSVKGRFTISRDNAKNTVYLQMNSLKPEDTAVYHCAAEYGGSSAKYGYWGQGTQVTVSS,low polyreactivity
9,QVQLVESGGGLVQAGGSLRLSCAASGLIFVGYAMGWYRQAPGKERELVAAITSGGSTKYADSVKGRFTISRDNAKNTVYLQMNSLKPEDTAVYYCAASGWRNWWSARNYYWGQGTQVTVSS,low polyreactivity
10,QVQLVESGGGLVQAGGSLRLSCAASGLIFVGYVMGWYRQAPGKERELVAAITSSSGSTYYADSVKGRFTISRDNAKNTVYLQKNSLKPEDTAVYYCAAEWGYYWYYDSEYWGQGTQVTVSS,high polyreactivity
11,QVQLVESGGGLVQAGGSLRLSCAASGLIFVINAMGWYRQAPGKERELVATISSGVSTNYADSVKGRFTISRDNAKNTVYLQMNSLKPEDTAVYYCKKGQTVSRGYRLYERYDYWGQGTQVTVSS,low polyreactivity
12,QVQLVESGGGLVQAGGSLRLSCAASGLIFWGYTMGWYRQAPGKEREFVAAISKSAGSTFYADSVKGRFTISRDNAKNTVYLQMNSLKPEDTAVYYCATGGFPGARVAYDYYYWGQGTQVTVSS,low polyreactivity
13,QVQLVESGGGLVQAGGSLRLSCAASGLIFWGYTMGWYRQAPGKERELVAAISRRGGRTYYADSVKGRFTISRDNAKNTVYLQMNSLKPEDTAVYYCNADITSSGPKSDYWGQGTQVTVSS,high polyreactivity
14,QVQLVESGGGLVQAGGSLRLSCAASGLIFWLNAMGWYRQAPGKERELVAAISWTDGTTYYADSVKGRFTISRDNAKNTVYLQMNSLIPEDTAVYYCAAEQVTIEDGVYFDFNSWGQGTQVTVSS,low polyreactivity
15,QVQLVESGGGLVQAGGSLRLSCAASGLIFWVYTMGWYRQAPGKERELVASISWNGGSTYYADSVKGRFTISRDNAKNTVYLQMNSLKPEDTAVYYCAAGARYVQRDYWGQGTQVTVSS,low polyreactivity
16,QVQLVESGGGLVQAGGSLRLSCAASGLIFWYYTMGWYRPAPGKERELVAAITIGGSTYYADSVKGRFTISRDNAKNTVYLQMNSLKPEDTAVYYCNTRRGRSQGGRYEYDYWGQGTQVTVSS,low polyreactivity
17,QVQLVESGGGLVQAGGSLRLSCAASGLIFYDNAMGWYRQAPGKERELVAAISWGGGTTYYADSVKGRFTISRDNAKNTVYLQMISLKPDDTAVYYCAAEEALFYDFYYVLLDYWGQGTQVTVSS,high polyreactivity
18,QVQLVESGGGLVQAGGSLRLSCAASGLIFYFNAMGWYRQAPGKERELVASITRTGSTNYADSVKGRFTISRDNAKNTVYLQMNSLKAEDTAVYYCAAYGPVYPHEYDYWGHGTQVTVSS,low polyreactivity
19,QVQLVESGGGLVQAGGSLRLSCAASGLIFYKNAMAWYRQAPGKERELVAAIDWSSGSTYYADSVKGRFTISRDNAKNTVYLQMNSLIPEDTAVYYCAAEYVHHASGDFRTLYYYWGQGTQVTVSS,low polyreactivity
20,QVQLVESGGGLVQAGGSLRLSCAASGLIFYPYAMGWYRQAPGKERELVAAITSDGSTYYADSVKGRFTISRDNAKNTVYLQMNSLKPEDTAVYYCAVVVAYFDDDYGLSWFYEYDYWGQGTQVTVSS,low polyreactivity
21,QVQLVESGGGLVQAGGSLRLSCAASGLIFYRNAMGWYRQAPGKERELVAAISVSGGSTYYADSVKGRFTISRDNAKNTVYLQMNSLKPEDTAVYYCAAKTWRSRGLEMDYWGQGTQVTVSS,high polyreactivity
22,QVQLVESGGGLVQAGGSLRLSCAASGLIFYRYAMGWYRQAPAKERELVADITRDSGSTSYADSVKGRFTISRDYAKNTVYLQMNSLKPEDTAVYYCNAGWVYTASGRQYYITYDYWGQGTQVTVSS,high polyreactivity

row,Sequence,polyreactivity (PSR sort gate)
1,QVQLVESGGGLVQAGGSLRLSCAASGLIFYRYAMGWYRQAPGKERELVAAISSGGSTYYADSVKGRFTISRDNAKNTVYLQMNSLKPEDTAVYYCNAKVYGRRYDYWGQGTQVTVSS,high polyreactivity
2,QVQLVESGGGLVQAGGSLRLSCAASGLIFYSNAMGWYRQAPGKERELVAAISFNSGSTYYADSVKGRFTISRDNAKNTVYLQMNSLKPEDTAVYYCAKKRRFVVLSVQGDYWGQGTQVTVSS,low polyreactivity
3,QVQLVESGGGLVQAGGSLRLSCAASGLIFYSYTMGWYRQAPGKERELVAVISRSGTSTYYADSVKGRFTISRDNAKNTVYLQMNSLKPEDTAVYYCAALTRSGPYAYEYWGQGTQVTVSS,high polyreactivity
4,QVQLVESGGGLVQAGGSLRLSCAASGLIFYWNAMGWYRQAPGKERELVAGITSGGDTNYADSVKGRFTISRDNAKNTVYLQMNSLKPEDTAVYDCAAEGFRGYGYWGQGTQVTVSS,low polyreactivity
5,QVQLVESGGGLVQAGGSLRLSCAASGLIFYWYAMGWYRQAPGKEREFVAAISYGGTTTSYADSVKGRFTISRDNAKNTVYLQMNSLKPEDTAVYYCAAEESTSSWSINDYWGQGTQVTVSS,low polyreactivity
6,QVQLVESGGGLVQAGGSLRLSCAASGLIFYYYAMGWYRQAPGKERELVAAITRGGRTYYADSVKGRFTISRDNAKNTVYLQMNSLKPEDTAVYYCNTVSVKSGLDYWGQGTQVTVSS,high polyreactivity
7,QVQLVESGGGLVQAGGSLRLSCAASGLIFYYYVMGWYRQAPGKERELVARISTSGGSTYYADSVKGRFTISRDNAKNTVYLQMNSLKPEDTAVYYCAADHYGGRDYWGQGTQVTVSS,low polyreactivity
8,QVQLVESGGGLVQAGGSLRLSCAASGLIIPRYAMGWYRQAPGKERELVAAITYTGGSTYYADSVKGRFTISRDNAKNTVYLQMNSLKPEDTSVYYCAVVVGYTDSPYSYDYWGQGTQVTVSS,low polyreactivity
9,QVQLVESGGGLVQAGGSLRLSCAASGLIIVYNAIGWYRHAPGKERELVAGITSGGSTNYADSEKGRFTISRDNAKKTVYLQMNSLKPEDTAVYYCNAPVTGAGTYPPYDSWGQGTQVTVSS,high polyreactivity
10,QVQLVESGGGLVQAGGSLRLSCAASGLILGRYAMGWYRQAPGKERELVAAITRGGRTYYADSVKGRFTISRDNAKNTVYLQMNSLKPEDPAVYYCAATFGYTRNDYDYWGHGTQVTVSS,high polyreactivity
11,QVQLVESGGGLVQAGGSLRLSCAASGLILGVYSMGWYRQAPGKEREFVASINYGGGSTYYADSGKGRFTISRDNAKNTVYLQMNSLKPEDTAVYYCNARSRWGGTRLYSYDYWGQGTQVTVSS,low polyreactivity
12,QVQLVESGGGLVQAGGSLRLSCAASGLILGYYAMGWYRQAPGKERELVAAITSSGTTTYYADSVKGRFTISRDNAKNTVYLQMNSLKPEDTAVYYWAALYIGKKRFNYWGQGTQVNVSS,high polyreactivity
13,QVQLVESGGGLVQAGGSLRLSCAASGLILQYYVMGWYRQAPGKERELVAAITRSGGGTYYADSVKGRFTISRDNAKNTVYLQMNSLKPEDTAVYYCADRQPYRFHGSEYDYWGQGTQVNVSS,high polyreactivity
14,QVQLVESGGGLVQAGGSLRLSCAASGLILRKYAMGWYRQAPGKEREFVAAITQTGSRSYYADSVKGRFTISRDNAKNTVYLQMNSLKPEDTAVYYCAARGTRAYRTYDYWGQGTQVTVSS,high polyreactivity
15,QVQLVESGGGLVQAGGSLRLSCAASGLILTRYAMGWYRQAPGKERELVAAITKNGGSTYYADSVKGRFTISRDNAKNTVYLLMNSLKPEDTAVYYCNVCPRRVDRSRAASSDYDYWGQGSQVTVSS,high polyreactivity
16,QVQLVESGGGLVQAGGSLRLSCAASGLILTWNAMGWYRQAPGKERELVAAISRSDGITYYADSVKGRFTISRDTAKNTVYIQMNSLKPEDTAVYYCAKDGVPKGRGGAYYEYDYWGQGTQVTVSS,low polyreactivity
17,QVQLVESGGGLVQAGGSLRLSCAASGLILVPNTMGWYRQAPGKERELVAAISYSGGGTYYADSVKGRFTISRDNAKNTVYLQMNSLKPEDTAVYYCAADFYQSHFYRPRYDYWGQGTQVTVSS,low polyreactivity
18,QVQLVESGGGLVQAGGSLRLSCAASGLILYFNARGWYRQAPGKERELVADISSSGSSTYYADSVKGRFTISRDNAKNTVYLQMNSLKPEDTAVYYCAAGYYGEYWRSWYDYWGQGTQVTVSS,low polyreactivity
19,QVQLVESGGGLVQAGGSLRLSCAASGLILYRYAMGWYRQAPGKERELVAAITTSGSSTFYADSVKGRFTISRDNAKNTVYLQMNSLKPEDTAVYYCAATRPRYGIYWYDYWGQGTQVTVSS,high polyreactivity
20,QVQLVESGGGLVQAGGSLRLSCAASGLILYSYAMGWYRQAPGKERELVADISSGGITNYADSVKGRFTISRDNAKNTVYLQMNSLKPEDTAVYYCAADTRTSYYNDDYDYWGQGTQVTVSS,low polyreactivity
21,QVQLVESGGGLVQAGGSLRLSCAASGLIMRTNVMGWYRQPPGKERELVAAINFRTGSTYYADSVKGRFTISRDHAKNTVYLQMNSLKPEDTAVYYCAKAERRHYDYWGQGTQVTVSS,low polyreactivity
